According to patent US20240190915:

Molecular target: AGR2 (human, endogenous in PDAC cells) (UniProt O95994)

POLR2A (human, endogenous in PDAC cells)
phosphorylation levels of Ser2/5 residues (p-POLR2A^ser2/5) after AGR2 siRNA transfection, western blot: AGR2 downregulation (by siRNA transfection) reduces the phosphorylation levels of Ser2/5 residues (p-POLR2A^ser2/5), but not the POLR2A expression
